Reference: the MegaScale stability set (Tsuboyama et al. 2023)

B1: r16_88_TrROS_Hall (parent)
chain: EVIELKIKFKTPEQREKLKEIAKKLNAEVVEEKDGEVIIRFKTPEQAERALKEAEKLGAEVEL

Variants of: B1
Experiment: folding stability dG (cDNA display proteolysis); higher = more stable
Conditions: PBS, room temperature

Folding stability dG [kcal/mol] of substitutions, site by site:
E32: S 4.48, R 4.3, T 4.52, P 4.54, M 4.33, D 4.39, W 4.34, C 4.53, K 4.45, H 4.49, N 4.43, G 4.46, I 4.39, Q 4.62, L 4.31, V 4.54, A 4.34, F 4.57, Y 4.65
V30: N 4.52, C 4.38, E 4.59, I 4.46, P 4.07, R 4.42, F 4.61, S 4.51, D 4.27, G 4.26, Q 4.3, A 4.58, Y 4.42, M 4.49, W 4.39, L 4.44, K 4.48, T 4.39, H 4.35
K24: V 4.61, E 4.43, M 4.4, T 4.48, Q 4.56, D 4.39, L 4.5, N 4.46, G 4.47, W 4.77, F 4.67, H 4.3, Y 4.84, I 4.49, C 4.53, A 4.28, P 3.96, S 4.47, R 4.38
E20: R 4.59, W 4.75, L 4.87, A 4.37, V 4.47, K 4.39, G 4.32, C 4.51, Y 4.95, H 4.5, M 4.79, N 4.25, F 4.98, S 4.41, T 4.5, Q 4.22, D 4.26, P 3.68, I 4.45
A22: K 3.78, D 2.91, N 4.12, W 4.68, C 4.17, I 4.38, M 4.35, P 3.7, V 4.38, G 4.64, T 4.36, Y 4.74, L 4.62, R 4.18, Q 4.39, S 4.19, E 4.17, F 4.65, H 4.21
D34: E 4.44, M 4.5, W 4.32, N 4.3, K 4.19, Q 4.35, F 4.34, Y 4.29, C 4.42, H 4.52, R 4.23, T 4.49, I 4.5, G 4.46, S 4.25, V 4.4, A 4.32, L 4.3, P 4.26
E31: R 4.35, A 4.29, Q 4.57, S 4.6, V 4.37, W 4.68, C 4.51, T 4.35, N 4.49, G 4.41, I 4.45, P 4.06, L 4.62, K 4.34, H 4.63, D 4.45, Y 4.46, F 4.61, M 4.37
A27: E 3.84, I 4.34, N 3.76, C 4.25, W 4.42, Y 4.25, F 4.4, K 3.95, P 4.01, S 4.31, R 3.72, V 4.24, L 4.45, G 4.37, T 4.26, Q 3.88, D 3.12, H 4.04, M 4.42
L25: Q 4.42, R 4.09, M 4.28, E 4.25, D 4.31, Y 4.91, K 3.82, V 4.32, A 4.05, T 4.29, S 4.33, I 4.46, G 4.23, H 4.62, W 4.85, N 4.13, C 4.35, F 4.63, P 3.67
K33: G 4.36, C 4.42, M 4.39, L 4.59, T 4.35, A 4.37, Y 4.31, Q 4.49, D 4.26, F 4.42, V 4.35, W 4.45, P 4.27, I 4.27, R 4.43, N 4.32, S 4.17, H 4.45, E 3.99
K23: M 4.54, D 4.09, E 4.36, V 4.62, H 4.28, Q 4.27, S 4.55, I 4.56, C 4.61, L 4.53, T 4.63, R 4.48, W 4.8, P 3.93, A 4.21, G 4.43, N 4.34
N26: K 4.44, W 4.36, C 4.33, M 4.53, Y 4.31, D 4.3, I 4.19, V 4.35, E 4.09, H 4.24, T 4.41, P 3.84, Q 4.45, S 4.45, L 4.16, A 4.41, R 4.42, F 4.24, G 4.43
K19: G 4.38, V 4.14, S 4.25, P 3.37, R 4.3, T 4.49, F 4.62, I 4.31, N 4.11, M 4.42, Y 4.89, Q 4.3, D 4.31, L 4.5, E 4.12, W 4.7, H 4.29
I21: Y 4.78, M 4.43, R 3.62, C 4.31, L 4.39, H 4.29, S 4.17, Q 4.06, G 3.77, D 3.4, P 1.81, V 4.33, T 4.33, A 4.15, E 4, K 3.78, N 4.13, F 4.76
V29: N 4.62, Y 4.55, S 4.32, H 4.53, L 4.2, A 4.3, T 4.21, Q 4.76, P 4.1, M 4.4, E 4.47, F 4.23, D 4.14, W 4.3, C 4.49, R 4.57, G 4.47, I 4.3, K 4.39
E28: D 4.26, G 4.33, Q 4.51, N 4.17, H 4.43, W 4.53, T 4.4, P 4.34, F 4.17, C 4.65, L 4.24, Y 4.36, R 4.37, I 4.45, S 4.1, A 4.29, M 4.17, V 4.41, K 4.17
E36: S 4.26, K 4.65, Q 4.67, I 4.32, L 4.61, A 4.59, C 4.39, N 4.24, T 4.59, M 4.48, F 4.66, D 4.49, R 4.62, G 4.39, H 4.68, P 4.07
G35: Y 4.18, T 4.36, C 4.48, H 4.16, F 4.24, M 4.26, W 4.46, Q 4.25, L 4.32, K 4.24, S 4.48, D 4.1, V 4.35, I 4.51, A 4.5, P 3.8, N 4.33, E 4.14, R 4.42
